Blank lines part the entries; values can stand above or below the molecule they belong to.
Key:
[1] = target: GFP-OsKCH1/KCH2 (O. sativa) (UniProt Q0IMS9); experiment: single-molecule photobleaching (TIRF microscopy); GFP-tagged motors bound to surface-immobilized microtubules in the single-molecule motility buffer without ATP, room temperature; photobleaching steps counted
[2] = target: GFP-OsKCH2(289–720) (O. sativa); experiment: sucrose gradient centrifugation; 5–20% sucrose gradient in BRB80 with 25 mM KCl, 150,000 x g, 4 °C, 18 h; fractions by SDS-PAGE; standards CA, BSA, AD, amylase, apoferritin
[3] = target: GFP-OsKCH2(289–767) (O. sativa); experiment: as above
[4] = target: GFP-OsKCH2(289–767) (O. sativa); experiment: single-molecule photobleaching (TIRF microscopy); GFP-tagged motors bound to surface-immobilized microtubules in the single-molecule motility buffer without ATP, room temperature; photobleaching steps counted
[5] = target: GFP-OsKCH2(289–767)^T (not stated | O. sativa); experiment: as above
[6] = target: the molecule itself; experiment: not stated; oligomeric state of GFP-OsKCH1(292–744), Supplementary Fig. 5d, e; legend not shown

stoichiometry N [1]: 2
Molecule: GFP-OsKCH1/KCH2 (from UniProt Q0IMS9 292-705) (domain or fragment)

stoichiometry N [2]: 2
Molecule: GFP-OsKCH2(289–720) (domain or fragment)

stoichiometry N [3]: 2 | stoichiometry N [4]: 2
Molecule: GFP-OsKCH2(289–767) (domain or fragment)

stoichiometry N [5]: 4
Molecule: GFP-OsKCH2(289–767)^T (domain or fragment)

B1: GFP-OsKCH1(292–744) (domain or fragment, O. sativa, UniProt Q0IMS9 292-744, looked up)
chain: GEVKQFQLEAQTNFDVQQKQIQELKGALSFVKSGMEQLRLQYSEEFAKLGKHFYTLSNAASSYHKVLEENRKLYNQIQDLKGNIRVYCRVRPFLPGHRSLSSSVADTEERTITIITPTKYGKDGCKSFSFNRVFGPASTQEEVFSDMQPLIRSVLDGFNVCIFAYGQTGSGKTFTMSGPKVLTEESLGVNYRALNDLFNIKAQRKGTIDYEISVQMIEIYNEQVRDLLQDGGNRRLEIRNTPQKGLAVPDASIVPVTSTADVVELMNQGQKNRAVGSTAINDRSSRSHSCLSVHVQGKYLTSGAMLRGCMHLVDLAGSERVDKSEVVGDRLKEAQYINKSLSALGDVIASLAQKNSHVPYRNSKLTQLLQDSLGGQAKTLMFVHVSPELDAVGETISTLKFAERVASVELGAAKANKEGSEVRELKEQIATLKAALAKKEGEPENIQSTQSSP
notes: codon-optimized synthetic cDNA; source: E. coli BL21 Rosetta (DE3), purified (Talon beads); not shown: GFP, N-terminal, kept
stoichiometry N [6]: 2
